Data on 1 molecule can be found in patent US20120315271A1 (Pfizer, published 2012).

For this assay, the target named is T1, human nerve growth factor (human, UniProt P01138 122-241, limits assumed).
T1 construct: also called human NGF; hNGF
Briefly: binding affinity measured with the Fab fragment; method not stated at this place (general BIAcore SPR protocol in paragraph 87); Fab, not IgG. Here is the method: To obtain monofunctional Fab fragments, an antibody (for example, IgG) can be cleaved with papain or expressed recombinantly. […] The concentrations of the Fab proteins are determined by ELISA and/or SDS-PAGE electrophoresis using a Fab of known concentration (as determined by amino acid analysis) as a standard. […] Equilibrium dissociation constant (KD) values are calculated as koff/kₒₙ.

T1 sequence (P01138 122-241 limits assumed): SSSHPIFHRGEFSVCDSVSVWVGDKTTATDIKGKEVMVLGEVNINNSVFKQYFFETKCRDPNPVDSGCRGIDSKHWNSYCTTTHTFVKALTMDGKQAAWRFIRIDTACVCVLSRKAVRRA

B1: Fab fragment of humanized anti-NGF antibody E3 (Fab, V domains shown)
VH: QVQLQESGPGLVKPSETLSLTCTVSGFSLIGYDLNWIRQPPGKGLEWIGIIWGDGTTDYNSAVKSRVTISKDTSKNQFSLKLSSVTAADTAVYYCARGGYWYATSYYFDYWGQGTLVTVS
VL: DIQMTQSPSSLSASVGDRVTITCRASQSISNNLNWYQQKPGKAPKLLIYYTSRFHSGVPSRFSGSGSGTDFTFTISSLQPEDIATYYCQQEHTLPYTFGQGTKLEIK
notes: Full antibody E3 has a human IgG2a heavy chain constant region with A330P331 to S330S331 and a human kappa light chain constant region
For B1, the Kd was approximately 0.07 nM.
